What all share (assay): co-IP
In assay [1] the target is myc-UBQLN1 (human) (human) (UniProt Q9UMX0).
Assay [2] has as its target Rv1566-V5 (Mycobacterium tuberculosis).
In assay [3] the target is Rv1926c-V5 (Mycobacterium tuberculosis) (UniProt P9WIP1).
Chain of UniProt P9WIP1 (P9WIP1 30-159): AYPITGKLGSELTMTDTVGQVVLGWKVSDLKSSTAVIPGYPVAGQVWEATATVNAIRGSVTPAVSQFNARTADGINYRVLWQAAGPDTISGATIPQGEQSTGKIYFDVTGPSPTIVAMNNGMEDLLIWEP

With Rv1566-V5 (natural protein), in assay [1], the percent of the amount directly precipitated came to 7%.
For the substance “myc-UBQLN1 (human) (from UniProt Q9UMX0 1-589) (natural protein)”, the percent of the amount directly precipitated in assay [2] worked out at 7%. In assay [3], the percent of the amount precipitated directly with the myc antibody came to 27%.

Values taken from publication PMC4520715.
